Numbering of substitutions follows the chain as printed.
B1: L1.GDF/L3.NY/H3.AP: anti-BCMA antibody (antibody, V domains shown)
VH: EVQLLESGGGLVQPGGSLRLSCAASGFTFGSYAMTWVRQAPGKGLEWVSAISGSGGNTFYADSVKGRFTISRDNSKNTLYLQMNSLRAEDTAVYYCARVSPIAAPMDYWGQGTLVTVSS
VL: EIVLTQSPGTLSLSPGERATLSCRASQSVGDFYLAWYQQKPGQAPRLLIYGASSRATGIPDRFSGSGSGTDFTLTISRLEPEDFAVYYCQHYNYPPSFTFGQGTKVEIK
B2: L3.PY/H2.LT: anti-BCMA antibody (antibody, V domains shown)
VH: B1 VH with G53L, S54T, A104S, P105G
VL: B1 VL with G30S, D31S, F32S, N93P
B3: L3.PY/H2.YQ: anti-BCMA antibody (antibody, V domains shown)
VH: B1 VH with G53Y, S54Q, A104S, P105G
VL: B1 VL with G30S, D31S, F32S, N93P
B4: L3.PY/H2.DY: anti-BCMA antibody (antibody, V domains shown)
VH: B1 VH with S52D, G53Y, A104S, P105G
VL: B1 VL with G30S, D31S, F32S, N93P
B5: L3.PY/H2.QR: anti-BCMA antibody (antibody, V domains shown)
VH: B1 VH with S63Q, V64R, A104S, P105G
VL: B1 VL with G30S, D31S, F32S, N93P
B6: L3.PY/H2.HA: anti-BCMA antibody (antibody, V domains shown)
VH: B1 VH with G53H, S54A, A104S, P105G
VL: B1 VL with G30S, D31S, F32S, N93P
B7: L3.PY/H2.QL: anti-BCMA antibody (antibody, V domains shown)
VH: B1 VH with S63Q, V64L, A104S, P105G
VL: B1 VL with G30S, D31S, F32S, N93P
B8: L3.PY/H3.AE: anti-BCMA antibody (antibody, V domains shown)
VH: B1 VH with P105E
VL: B1 VL with G30S, D31S, F32S, N93P
B9: L3.PY/H3.YA: anti-BCMA antibody (antibody, V domains shown)
VH: B1 VH with A103Y, P105G
VL: B1 VL with G30S, D31S, F32S, N93P

Molecular target: T1, hBCMA (human BCMA) (Homo sapiens, UniProt Q02223)
T1 sequence (Q02223 1-184): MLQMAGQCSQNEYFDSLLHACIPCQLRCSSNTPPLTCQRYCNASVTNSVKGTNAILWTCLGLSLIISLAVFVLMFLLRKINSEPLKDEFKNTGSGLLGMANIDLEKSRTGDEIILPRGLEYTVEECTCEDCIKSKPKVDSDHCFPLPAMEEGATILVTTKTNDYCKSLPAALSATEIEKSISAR
Test: Kinetics and affinity of hBCMA/human IgG interactions by SPR (Bio-Rad Proteon XPR36)
Assay type: binding
Details: huBCMA, 25° C.
Experimental: All experiments were performed on a Bio-Rad Proteon XPR36 surface Plasmon resonance biosensor (Bio-Rad, Hercules, Calif.). An array of anti-BCMA antibodies was prepared using an amine-coupling method on a Bio-Rad GLC Sensor Chip similar to that described in Abdiche, et al., Anal. Biochem. 411, 139-151 (2011). The analysis temperature for the immobilization was 25° C. and the running buffer was HBS-T+(10 mM HEPES, 150 mM NaCl, 0.05% Tween-20, pH 7.4). Channels were activated in the analyte (horizontal) direction by injecting a mixture of 1 mM ECD and 0.25 mM NHS for 3 minutes at a flow rate of 30 μL/min. IgGs were immobilized on the activated spots by injecting them in the ligand (vertical) direction at 20 μg/mL in 10 mM Acetate pH 4.5 buffer for 1.5 minutes at […]. The activated surfaces were blocked by injecting 1M ethanolamine, pH 8.5 in the analyte direction for 3 minutes at 30 μL/min.
The analysis temperature for the hBCMA binding analysis was 37° C. or 25° C. in a running buffer of HBS-T+, supplemented with 1 mg/mL BSA. A kinetic titration method was employed for the interaction analysis as described in Abdiche, et al. The hBCMA (human BCMA) analyte was injected in the analyte direction using a series of injections from low to high concentration. The concentrations used were 0.08 nM, 0.4 nM, 2 nM, 10 nM and 50 nM (a 5-membered series, with a 5-fold dilution factor and top concentration of 50 nM). The association time for a given analyte dilution was two minutes. Immediately after the 50 nM hBCMA injection, dissociation was monitored for 2 hours. Prior to the hBCMA analyte injections, buffer was injected 5 times using the same association and dissociation times at the hBCMA analyte cycles to prepare a buffer blank sensorgram for double-referencing purposes (double referencing as described in Myszka, J. Mol. Recognit. 12, 279-284 (1999).
The sensorgrams were double-referenced and fit to a 1:1 Langmuir with mass transport kinetic titration model in BIAevaluation Software version 4.1.1 (GE Lifesciences, Piscataway, N.J.). The sensorgrams and fits are shown in FIG. 1, and the kinetics and affinity parameters for various anti-BCMA antibodies of the present invention are shown in Tables 6A-6C.

B1 was tested, and the “ka (1/Ms) huBCMA @ 25° C.” value was 1.41e+06 M⁻¹ s⁻¹.

With B1 the “kd (1/s) huBCMA @25° C.” value was 0.00141 s⁻¹.

Same assay, conditions: huBCMA, 37° C.

In order of falling “ka (1/Ms) huBCMA @ 37° C.” value:
1. B8  3.29e+06 M⁻¹ s⁻¹
2. B9  3.15e+06 M⁻¹ s⁻¹
3. B7  2.64e+06 M⁻¹ s⁻¹
4. B4  2.6e+06 M⁻¹ s⁻¹
5. B3  2.58e+06 M⁻¹ s⁻¹
6. B5  2.56e+06 M⁻¹ s⁻¹
7. B6  2.43e+06 M⁻¹ s⁻¹
8. B2  2.4e+06 M⁻¹ s⁻¹

In order of rising “kd (1/s) huBCMA @37° C.” value:
1. B9  0.00118 s⁻¹
2. B5  0.00119 s⁻¹
3. B2  0.00129 s⁻¹
4. B4  0.00138 s⁻¹
5. B8  0.00139 s⁻¹
6. B6  0.00147 s⁻¹
7. B3  0.00156 s⁻¹
8. B7  0.00218 s⁻¹

Test system: cyBCMA
Test: Kinetics and affinity of cyBCMA/human IgG interactions by SPR (Bio-Rad Proteon XPR36)
Assay type: binding, cynomolgus
Details: 25° C.

With B1 the “ka (1/Ms) cyBCMA @ 25° C.” value was 1.36e+06 M⁻¹ s⁻¹.

For B1, the “kd (1/s) cyBCMA @25° C.” value was 0.00702 s⁻¹.

Same assay, conditions: 37° C.

In order of rising “ka (1/Ms) cyBCMA @ 37° C.” value:
1. B6  1.99e+06 M⁻¹ s⁻¹
2. B7  2.05e+06 M⁻¹ s⁻¹
3. B2  2.09e+06 M⁻¹ s⁻¹
4. B5  2.18e+06 M⁻¹ s⁻¹
5. B4  2.24e+06 M⁻¹ s⁻¹
6. B3  2.46e+06 M⁻¹ s⁻¹
7. B8  2.82e+06 M⁻¹ s⁻¹
8. B9  2.87e+06 M⁻¹ s⁻¹

In order of rising “kd (1/s) cyBCMA @37° C.” value:
1. B8  0.00504 s⁻¹
2. B9  0.0054 s⁻¹
3. B4  0.00618 s⁻¹
4. B3  0.00621 s⁻¹
5. B5  0.00658 s⁻¹
6. B6  0.00755 s⁻¹
7. B2  0.00757 s⁻¹
8. B7  0.0126 s⁻¹
